Key:
Assay in all cases: holdup assay
Design in all cases: key: below the threshold = too weak to quantify, mostly under pKd 3.1 to 4
LAP2, Q96RT1 = biological target: LAP2, Q96RT1
DLG1_1, Q12959 = biological target: DLG1_1, Q12959
MPP7, Q5T2T1 = biological target: T1, MPP7, Q5T2T1
T1 sequence (Q5T2T1 134-230, limits assumed, looked up): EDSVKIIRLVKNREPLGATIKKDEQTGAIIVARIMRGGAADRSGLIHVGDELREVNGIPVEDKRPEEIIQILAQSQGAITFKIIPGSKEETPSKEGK

RADIL, Q96JH8 = biological target: T2, RADIL, Q96JH8
T2 sequence (Q96JH8 971-1071, limits assumed, looked up): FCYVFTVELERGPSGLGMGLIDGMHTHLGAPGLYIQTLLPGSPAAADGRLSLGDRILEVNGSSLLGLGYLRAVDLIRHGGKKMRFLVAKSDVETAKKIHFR

FRMPD2_1, Q68DX3 = biological target: FRMPD2_1, Q68DX3
Chain of FRMPD2_1, Q68DX3 (Q68DX3 770-861): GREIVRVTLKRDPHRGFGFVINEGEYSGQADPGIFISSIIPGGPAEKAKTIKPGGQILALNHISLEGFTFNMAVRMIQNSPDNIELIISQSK

PCLO, Q9Y6V0 = biological target: T3, PCLO, Q9Y6V0
T3 sequence (Q9Y6V0 4491-4600, limits assumed, looked up): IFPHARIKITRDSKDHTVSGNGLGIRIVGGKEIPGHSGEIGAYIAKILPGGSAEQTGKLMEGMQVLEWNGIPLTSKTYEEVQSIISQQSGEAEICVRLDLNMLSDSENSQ

GORASP1, Q9BQQ3 = biological target: GORASP1, Q9BQQ3
Chain of GORASP1, Q9BQQ3 (Q9BQQ3 1-208): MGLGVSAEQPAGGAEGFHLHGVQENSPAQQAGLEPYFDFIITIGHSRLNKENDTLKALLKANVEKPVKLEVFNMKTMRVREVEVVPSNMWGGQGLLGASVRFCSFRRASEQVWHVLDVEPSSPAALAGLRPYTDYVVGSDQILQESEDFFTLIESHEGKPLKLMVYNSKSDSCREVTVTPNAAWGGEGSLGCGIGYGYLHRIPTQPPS

Inadl_2, Q8NI35 = biological target: Inadl_2, Q8NI35
Chain of Inadl_2, Q8NI35 (Q8NI35 238-335): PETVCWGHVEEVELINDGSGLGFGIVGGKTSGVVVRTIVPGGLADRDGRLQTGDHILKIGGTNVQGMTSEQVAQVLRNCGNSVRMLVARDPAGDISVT

LNX1_1, Q8TBB1 = biological target: LNX1_1, Q8TBB1
Chain of LNX1_1, Q8TBB1 (Q8TBB1 261-371): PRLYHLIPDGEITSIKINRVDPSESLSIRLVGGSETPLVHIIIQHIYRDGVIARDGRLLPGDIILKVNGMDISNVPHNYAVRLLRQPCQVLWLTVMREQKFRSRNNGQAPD

GRIP1_4, Q9Y3R0 = biological target: T4, GRIP1_4, Q9Y3R0
T4 sequence (Q9Y3R0 467-571, limits assumed, looked up): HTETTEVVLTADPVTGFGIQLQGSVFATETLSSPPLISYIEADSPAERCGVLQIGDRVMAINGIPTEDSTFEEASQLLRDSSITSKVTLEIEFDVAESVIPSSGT

DLG4_3, P78352 = biological target: DLG4_3, P78352
Chain of DLG4_3, P78352 (P78352 306-403): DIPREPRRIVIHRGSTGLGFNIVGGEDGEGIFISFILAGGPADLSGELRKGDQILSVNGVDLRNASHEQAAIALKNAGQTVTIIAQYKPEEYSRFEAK

CASK, O14936 = biological target: CASK, O14936
Chain of CASK, O14936 (O14936 487-570): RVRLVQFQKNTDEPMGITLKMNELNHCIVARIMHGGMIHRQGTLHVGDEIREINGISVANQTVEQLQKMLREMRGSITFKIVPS

MAGI1_2, Q96QZ7 = biological target: MAGI1_2, Q96QZ7
Chain of MAGI1_2, Q96QZ7 (Q96QZ7 456-580): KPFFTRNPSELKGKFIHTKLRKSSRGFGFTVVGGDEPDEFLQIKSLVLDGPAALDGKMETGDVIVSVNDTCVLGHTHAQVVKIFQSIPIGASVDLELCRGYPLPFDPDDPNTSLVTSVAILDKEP

PDZD7_3, Q9H5P4 = biological target: T5, PDZD7_3, Q9H5P4
T5 sequence (Q9H5P4 857-944, limits assumed, looked up): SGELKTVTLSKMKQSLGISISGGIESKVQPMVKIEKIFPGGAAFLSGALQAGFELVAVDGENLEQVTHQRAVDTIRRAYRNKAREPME

GRIP2_6, Q9C0E4 = biological target: GRIP2_6, Q9C0E4
Chain of GRIP2_6, Q9C0E4 (Q9C0E4 648-740): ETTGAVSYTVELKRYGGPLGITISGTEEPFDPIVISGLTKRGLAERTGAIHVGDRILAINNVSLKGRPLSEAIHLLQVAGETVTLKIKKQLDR

FRMPD2_3, Q68DX3 = biological target: FRMPD2_3, Q68DX3
Chain of FRMPD2_3, Q68DX3 (Q68DX3 1073-1166): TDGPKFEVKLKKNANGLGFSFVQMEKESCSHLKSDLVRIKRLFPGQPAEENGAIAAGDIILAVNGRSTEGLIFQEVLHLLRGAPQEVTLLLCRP

APBA1_2, Q02410 = biological target: T6, APBA1_2, Q02410
T6 sequence (Q02410 742-832, limits assumed, looked up): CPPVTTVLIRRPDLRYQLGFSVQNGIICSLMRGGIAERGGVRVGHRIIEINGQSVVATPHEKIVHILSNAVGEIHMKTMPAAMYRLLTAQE

MPP6, Q9NZW5 = biological target: T7, MPP6, Q9NZW5
T7 sequence (Q9NZW5 125-219, limits assumed, looked up): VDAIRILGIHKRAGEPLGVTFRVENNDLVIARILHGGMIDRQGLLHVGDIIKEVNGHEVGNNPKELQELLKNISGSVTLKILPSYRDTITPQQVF

FRMPD2_2, Q68DX3 = biological target: FRMPD2_2, Q68DX3
Chain of FRMPD2_2, Q68DX3 (Q68DX3 944-1038): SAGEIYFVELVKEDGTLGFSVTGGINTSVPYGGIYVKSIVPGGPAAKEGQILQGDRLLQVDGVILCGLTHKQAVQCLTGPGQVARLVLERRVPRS

GRIP2_7, Q9C0E4 = biological target: GRIP2_7, Q9C0E4
Chain of GRIP2_7, Q9C0E4 (Q9C0E4 934-1023): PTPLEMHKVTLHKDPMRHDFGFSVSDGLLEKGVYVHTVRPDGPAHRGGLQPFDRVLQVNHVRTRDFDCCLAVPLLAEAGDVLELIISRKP

LNX1_3, Q8TBB1 = biological target: LNX1_3, Q8TBB1
Chain of LNX1_3, Q8TBB1 (Q8TBB1 500-596): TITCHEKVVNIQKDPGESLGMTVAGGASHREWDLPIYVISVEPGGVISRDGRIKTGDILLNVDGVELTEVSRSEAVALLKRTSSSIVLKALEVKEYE

NHERF3_4, Q5T2W1 = biological target: T8, NHERF3_4, Q5T2W1
T8 sequence (Q5T2W1 373-468, limits assumed, looked up): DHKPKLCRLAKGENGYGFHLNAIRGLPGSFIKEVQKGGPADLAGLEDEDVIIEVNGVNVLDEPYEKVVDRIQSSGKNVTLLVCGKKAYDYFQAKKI

LIN7B, Q9HAP6 = biological target: T9, LIN7B, Q9HAP6
T9 sequence (Q9HAP6 88-185, limits assumed, looked up): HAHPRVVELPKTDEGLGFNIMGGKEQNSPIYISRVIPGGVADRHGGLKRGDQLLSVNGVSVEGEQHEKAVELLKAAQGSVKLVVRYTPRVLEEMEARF

PDZD2_2, O15018 = biological target: T10, PDZD2_2, O15018
T10 sequence (O15018 329-429, limits assumed, looked up): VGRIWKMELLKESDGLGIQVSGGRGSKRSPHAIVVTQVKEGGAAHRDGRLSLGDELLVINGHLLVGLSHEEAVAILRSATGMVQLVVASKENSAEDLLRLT

GRIP1_3, Q9Y3R0 = biological target: T11, GRIP1_3, Q9Y3R0
T11 sequence (Q9Y3R0 247-346, limits assumed, looked up): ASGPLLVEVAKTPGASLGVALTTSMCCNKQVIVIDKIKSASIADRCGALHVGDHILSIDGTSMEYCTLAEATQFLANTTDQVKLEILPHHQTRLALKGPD

MAGI2_4, Q86UL8 = biological target: MAGI2_4, Q86UL8
Chain of MAGI2_4, Q86UL8 (Q86UL8 772-865): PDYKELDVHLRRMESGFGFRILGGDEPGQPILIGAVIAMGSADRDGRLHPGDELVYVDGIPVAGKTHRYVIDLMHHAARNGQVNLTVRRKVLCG

GIPC2, Q8TF65 = biological target: GIPC2, Q8TF65
Chain of GIPC2, Q8TF65 (Q8TF65 112-203): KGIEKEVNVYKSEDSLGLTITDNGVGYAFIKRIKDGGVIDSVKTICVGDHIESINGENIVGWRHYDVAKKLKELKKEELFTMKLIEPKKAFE

[1] = plain residues with an end cap or a label only (N-terminal biotin on a linker: ttds)
[2] = plain residues with an end cap or a label only (N-terminal biotin on a linker: none)
[3] = plain residues with an end cap or a label only (N-terminal biotin on a linker: ahx)

Chain of LAP2, Q96RT1 (Q96RT1 other isoform, or with tags, fused parts or gaps): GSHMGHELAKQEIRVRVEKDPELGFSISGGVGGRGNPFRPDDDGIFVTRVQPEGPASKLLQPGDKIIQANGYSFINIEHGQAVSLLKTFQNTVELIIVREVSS

VDFPPKESSL [ACVR2A, P27037]
pKd (LAP2, Q96RT1; [1]): below the threshold
pKd (DLG1_1, Q12959; [1]): 3.71
pKd (MPP7, Q5T2T1; [1]): below the threshold
pKd (RADIL, Q96JH8; [1]): below the threshold
pKd (FRMPD2_1, Q68DX3; [1]): 3.82
pKd (PCLO, Q9Y6V0; [1]): below the threshold
pKd (GORASP1, Q9BQQ3; [1]): below the threshold
pKd (Inadl_2, Q8NI35; [1]): below the threshold
pKd (LNX1_1, Q8TBB1; [1]): below the threshold
pKd (GRIP1_4, Q9Y3R0; [1]): below the threshold
pKd (DLG4_3, P78352; [1]): 3.71
pKd (CASK, O14936; [1]): below the threshold
pKd (MAGI1_2, Q96QZ7; [1]): below the threshold
pKd (PDZD7_3, Q9H5P4; [1]): 3.61
pKd (GRIP2_6, Q9C0E4; [1]): below the threshold
pKd (FRMPD2_3, Q68DX3; [1]): below the threshold
pKd (APBA1_2, Q02410; [1]): 3.33
pKd (MPP6, Q9NZW5; [1]): below the threshold
pKd (FRMPD2_2, Q68DX3; [1]): below the threshold
pKd (GRIP2_7, Q9C0E4; [1]): below the threshold
pKd (LNX1_3, Q8TBB1; [1]): below the threshold
pKd (NHERF3_4, Q5T2W1; [1]): below the threshold
pKd (LIN7B, Q9HAP6; [1]): 3.54
pKd (PDZD2_2, O15018; [1]): 3.63
pKd (GRIP1_3, Q9Y3R0; [1]): below the threshold
pKd (MAGI2_4, Q86UL8; [1]): below the threshold
pKd (GIPC2, Q8TF65; [1]): below the threshold

SGSRPSATVV [HPV73-E6, Q82005]
pKd (LAP2, Q96RT1; [1]): below the threshold
pKd (DLG1_1, Q12959; [1]): 3.89
pKd (MPP7, Q5T2T1; [1]): below the threshold
pKd (RADIL, Q96JH8; [1]): 4.27
pKd (FRMPD2_1, Q68DX3; [1]): 3.51
pKd (PCLO, Q9Y6V0; [1]): below the threshold
pKd (GORASP1, Q9BQQ3; [1]): 4.19
pKd (Inadl_2, Q8NI35; [1]): below the threshold
pKd (LNX1_1, Q8TBB1; [1]): 3.74
pKd (GRIP1_4, Q9Y3R0; [1]): below the threshold
pKd (DLG4_3, P78352; [1]): below the threshold
pKd (CASK, O14936; [1]): below the threshold
pKd (MAGI1_2, Q96QZ7; [1]): 4.15
pKd (PDZD7_3, Q9H5P4; [1]): 4.7
pKd (GRIP2_6, Q9C0E4; [1]): below the threshold
pKd (FRMPD2_3, Q68DX3; [1]): below the threshold
pKd (APBA1_2, Q02410; [1]): 4.02
pKd (MPP6, Q9NZW5; [1]): 3.57
pKd (FRMPD2_2, Q68DX3; [1]): below the threshold
pKd (GRIP2_7, Q9C0E4; [1]): 3.56
pKd (LNX1_3, Q8TBB1; [1]): below the threshold
pKd (NHERF3_4, Q5T2W1; [1]): 3.6
pKd (LIN7B, Q9HAP6; [1]): below the threshold
pKd (PDZD2_2, O15018; [1]): 4.11
pKd (GRIP1_3, Q9Y3R0; [1]): below the threshold
pKd (MAGI2_4, Q86UL8; [1]): 4.49
pKd (GIPC2, Q8TF65; [1]): 3.62

PVRVCEETSL [OTULIN, Q96BN8]
pKd (LAP2, Q96RT1; [1]): 4.18
pKd (DLG1_1, Q12959; [1]): 4.35
pKd (MPP7, Q5T2T1; [1]): below the threshold
pKd (RADIL, Q96JH8; [1]): below the threshold
pKd (FRMPD2_1, Q68DX3; [1]): below the threshold
pKd (PCLO, Q9Y6V0; [1]): below the threshold
pKd (GORASP1, Q9BQQ3; [1]): 3.64
pKd (Inadl_2, Q8NI35; [1]): below the threshold
pKd (LNX1_1, Q8TBB1; [1]): below the threshold
pKd (GRIP1_4, Q9Y3R0; [1]): below the threshold
pKd (DLG4_3, P78352; [1]): 3.96
pKd (CASK, O14936; [1]): below the threshold
pKd (MAGI1_2, Q96QZ7; [1]): 4.01
pKd (PDZD7_3, Q9H5P4; [1]): 4.41
pKd (GRIP2_6, Q9C0E4; [1]): 3.53
pKd (FRMPD2_3, Q68DX3; [1]): below the threshold
pKd (APBA1_2, Q02410; [1]): 3.95
pKd (MPP6, Q9NZW5; [1]): below the threshold
pKd (FRMPD2_2, Q68DX3; [1]): 3.51
pKd (GRIP2_7, Q9C0E4; [1]): 3.66
pKd (LNX1_3, Q8TBB1; [1]): below the threshold
pKd (NHERF3_4, Q5T2W1; [1]): below the threshold
pKd (LIN7B, Q9HAP6; [1]): 3.85
pKd (PDZD2_2, O15018; [1]): 3.54
pKd (GRIP1_3, Q9Y3R0; [1]): below the threshold
pKd (MAGI2_4, Q86UL8; [1]): below the threshold
pKd (GIPC2, Q8TF65; [1]): 4.02

NLNSSRVPDLLV [SARS-CoV2-E, P0DTC4]
pKd (LAP2, Q96RT1; [2]): below the threshold
pKd (DLG1_1, Q12959; [2]): below the threshold
pKd (MPP7, Q5T2T1; [2]): below the threshold
pKd (RADIL, Q96JH8; [2]): 3.76
pKd (FRMPD2_1, Q68DX3; [2]): below the threshold
pKd (PCLO, Q9Y6V0; [2]): below the threshold
pKd (GORASP1, Q9BQQ3; [2]): 3.6
pKd (Inadl_2, Q8NI35; [2]): 3.47
pKd (LNX1_1, Q8TBB1; [2]): below the threshold
pKd (GRIP1_4, Q9Y3R0; [2]): below the threshold
pKd (DLG4_3, P78352; [2]): below the threshold
pKd (CASK, O14936; [2]): below the threshold
pKd (MAGI1_2, Q96QZ7; [2]): below the threshold
pKd (PDZD7_3, Q9H5P4; [2]): below the threshold
pKd (GRIP2_6, Q9C0E4; [2]): below the threshold
pKd (FRMPD2_3, Q68DX3; [2]): below the threshold
pKd (APBA1_2, Q02410; [2]): below the threshold
pKd (MPP6, Q9NZW5; [2]): below the threshold
pKd (FRMPD2_2, Q68DX3; [2]): below the threshold
pKd (GRIP2_7, Q9C0E4; [2]): below the threshold
pKd (LNX1_3, Q8TBB1; [2]): below the threshold
pKd (NHERF3_4, Q5T2W1; [2]): below the threshold
pKd (LIN7B, Q9HAP6; [2]): below the threshold
pKd (PDZD2_2, O15018; [2]): below the threshold
pKd (GRIP1_3, Q9Y3R0; [2]): below the threshold
pKd (MAGI2_4, Q86UL8; [2]): 3.65
pKd (GIPC2, Q8TF65; [2]): below the threshold

TVICWPGSLV [LNX2, Q8N448]
pKd (LAP2, Q96RT1; [3]): 3.86
pKd (DLG1_1, Q12959; [3]): 4.21
pKd (MPP7, Q5T2T1; [3]): below the threshold
pKd (RADIL, Q96JH8; [3]): 4.91
pKd (FRMPD2_1, Q68DX3; [3]): 4.13
pKd (PCLO, Q9Y6V0; [3]): below the threshold
pKd (GORASP1, Q9BQQ3; [3]): 3.58
pKd (Inadl_2, Q8NI35; [3]): below the threshold
pKd (LNX1_1, Q8TBB1; [3]): 4.79
pKd (GRIP1_4, Q9Y3R0; [3]): below the threshold
pKd (DLG4_3, P78352; [3]): 3.58
pKd (CASK, O14936; [3]): below the threshold
pKd (MAGI1_2, Q96QZ7; [3]): 3.85
pKd (PDZD7_3, Q9H5P4; [3]): 4.5
pKd (GRIP2_6, Q9C0E4; [3]): below the threshold
pKd (FRMPD2_3, Q68DX3; [3]): below the threshold
pKd (APBA1_2, Q02410; [3]): 4.39
pKd (MPP6, Q9NZW5; [3]): below the threshold
pKd (FRMPD2_2, Q68DX3; [3]): 3.85
pKd (GRIP2_7, Q9C0E4; [3]): below the threshold
pKd (LNX1_3, Q8TBB1; [3]): 3.57
pKd (NHERF3_4, Q5T2W1; [3]): below the threshold
pKd (LIN7B, Q9HAP6; [3]): 4.46
pKd (PDZD2_2, O15018; [3]): 5.07
pKd (GRIP1_3, Q9Y3R0; [3]): below the threshold
pKd (MAGI2_4, Q86UL8; [3]): 5.22
pKd (GIPC2, Q8TF65; [3]): below the threshold

From article PMC9482650, “Quantitative fragmentomics allow affinity mapping of interactomes” (Nature Communications, 2022)
